Results taken from patent US10689421B2, “Bacteriocin-producing Paenibacillus ehimensis and application thereof” (National Pingtung University of Science and Technology, priority 2018, dated 2020).

Tests used:
E. coli [1] = test: Evaluation of antibacterial protein pH tolerance; assay type: physicochemical; settings: 28° C.
Procedure: Add the purified antibacterial substance in PBS buffer pH7.4 as control group. The experimental groups comprise pH 2, pH3, pH 4, pH 5, pH 6, pH 7, pH 8, pH 9 and pH 10 group, the buffer used for different pH treatment are Glycine-HCl buffer (pH 2.0), Citrate-phosphate Mcllvaine buffer (pH 3.0, 4.0, 5.0 and 6.0), Sodium-phosphate buffer (pH 7.0), Tris(hydroxymethyl) aminomethane buffer (pH 8.0 and 9.0) and Glycine-NaOH buffer (pH 10.0). First, add 500 μl of purified antibacterial protein in 15 ml centrifuge individually for each group, then add 2 ml of different pH buffer to change pH environment of treated antibacterial substance and stand for 4 hours under 28° C. After 4 hours, measure the antibacterial activity and inhibitory zone diameter using TSB agar plate containing E. coli.

trypsin = test: Sensitivity of antibacterial protein Peocin to protease; assay type: physicochemical; settings: trypsin 1 mg/ml, 4 hours, 37° C.
Procedure: (§1) Evaluate sensitivity of Peocin to proteinase K and trypsin respectively. First, add 180 μl of purified antibacterial protein peocin into 1.7 ml micro-centrifuge tube, then add 20 μl of 10 mg/ml proteinase K and trypsin respectively for the final concentration of protease to be 1 mg/ml, then stand for 4 hours under 37° C. for reaction. Next, use TSB agar plate containing E. coli to measure the antibacterial activity and inhibitory zone diameter. For comparison, use PBS buffer without antibacterial protein as buffer group, and control group is purified antibacterial protein peocin without protease.

proteinase K = proteinase K (Parengyodontium album, UniProt P06873); test: as above; assay type: physicochemical; settings: protease K 1 mg/ml, 4 hours, 37° C.
Procedure: as §1

E. coli [2] = test: Antibacterial activity of purified antibacterial protein (Resazurin reduction assay); assay type: cell-based; settings: compared with the unpurified culture supernatant
Procedure: Antibacterial activity is evaluated by using Resazurin reduction assay. The Resazurin reduction assay is used to determine bacteria or cell activity, based on its reaction with mitochondria NADH dehydrogenase, which reduces the original dark blue Resazurin into pink Resorufin. Dilute the indicator bacterial strain E. coli cultured in advance to 1×10^7 CFU/ml and prepare 0.25 mg/ml Resazurin dye for following experiment. 96-well plate was divided into groups of three well as a triplication of one sample set; the total being 21 sets and every well was added with 60 μl TSB medium, 10 μl Resazurin dye, 10 μl indicator strain and 20 μl sample (total 100 μl). The aforementioned 20 μl sample is prepared by adding 0, 1, 2, . . . 20 μl of sample medium respectively, then use TSB medium to fill the total sample volume to 20 μl. Place the sample added 96-well plate in 37° C. incubation box for 12 hours and observe the results. Antibacterial unit (AU) is determined by Resazurin assay, whereas the minimum amount of sample medium required to inhibit color change is 1AU. The antibacterial activity of sampled culture in each time point is represented by how many AU there is in 1 ml of medium.
Take 500 μl liquid bacteria from −80° C. preserved NPUST-1 strain, add it to 50 ml TSB broth culture and culture it for 24 hours under 28° C. for activation. […]

Debaryomyces hansenii = test: Inhibitory zone of Peocin on solid medium containing pathogen; assay type: cell-based; settings: solid medium containing strain 10^6 CFU/ml
Excerpt: (§2) Following pathogens were subjected in the test. Six aquaculture pathogen: Aeromonas hydrophila, Vibrio vulnificus, Vibrio alginolyticus, Vibrio parahaemolyticus, Streptococcus agalactiae and Debaryomyces hansenii. Five foodborne pathogen which cause food rot and food poisoning: Staphylococcus aureus, Methicillin-resistant Staphylococcus aureus (MRSA), Escherichia coli, Salmonella typhimurium and Listeria monocytogenes. Two clinical infectious pathogens: Pseudomonas aeruginosa and Burkholderia gladioli causing leaf spot disease. Culture these strains separately and create solid medium containing these strains (10^6 CFU/ml). Add antibacterial protein after solid medium solidifies, then measure the antibacterial activity and inhibitory zone diameter.

Burkholderia gladioli = test: as above; assay type: cell-based; settings: solid medium containing strain 10^6 CFU/ml
Excerpt: as §2

Staphylococcus aureus = test: as above; assay type: cell-based; settings: solid medium containing strain 10^6 CFU/ml
Excerpt: as §2

Vibrio vulnificus = test: as above; assay type: cell-based; settings: solid medium containing strain 10^6 CFU/ml
Excerpt: as §2

Listeria monocytogenes = test: as above; assay type: cell-based; settings: solid medium containing strain 10^6 CFU/ml
Excerpt: as §2

Aeromonas hydrophila = test: as above; assay type: cell-based; settings: solid medium containing strain 10^6 CFU/ml
Excerpt: as §2

Vibrio alginolyticus = test: as above; assay type: cell-based; settings: solid medium containing strain 10^6 CFU/ml
Excerpt: as §2

[3] = tested on: Methicillin-resistant Staphylococcus aureus (MRSA); test: as above; assay type: cell-based; settings: solid medium containing strain 10^6 CFU/ml
Excerpt: as §2

Escherichia coli = test: as above; assay type: cell-based; settings: solid medium containing strain 10^6 CFU/ml
Excerpt: as §2

Streptococcus agalactiae = test: as above; assay type: cell-based; settings: solid medium containing strain 10^6 CFU/ml
Excerpt: as §2

Salmonella typhimurium = test: as above; assay type: cell-based; settings: solid medium containing strain 10^6 CFU/ml
Excerpt: as §2

Vibrio parahaemolyticus = test: as above; assay type: cell-based; settings: solid medium containing strain 10^6 CFU/ml
Excerpt: as §2

Pseudomonas aeruginosa = test: as above; assay type: cell-based; settings: solid medium containing strain 10^6 CFU/ml
Excerpt: as §2

E. coli [4] = test: Antibacterial protein stability under different preservation temperature for 70 days; assay type: physicochemical
Procedure: Place purified antibacterial protein Peocin sample in 40° C., room temperature, 4° C. and −20° C. environment respectively for 70 days. Each week during the experiment, extract samples and measure their antibacterial activity and inhibitory zone diameter using TSB agar plate containing E. coli.

proteinase K, sequence (P06873 106-384): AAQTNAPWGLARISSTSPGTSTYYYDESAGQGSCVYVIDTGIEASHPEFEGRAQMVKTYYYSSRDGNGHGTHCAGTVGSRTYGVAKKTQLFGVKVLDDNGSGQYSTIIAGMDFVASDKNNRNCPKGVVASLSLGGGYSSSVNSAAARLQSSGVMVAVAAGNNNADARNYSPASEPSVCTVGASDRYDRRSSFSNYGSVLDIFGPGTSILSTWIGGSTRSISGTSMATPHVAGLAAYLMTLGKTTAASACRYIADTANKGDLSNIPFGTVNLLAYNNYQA

B1: Peocin: bacteriocin; DNA starvation/stationary phase protection protein produced by Paenibacillus ehimensis NPUST-1, amino acid SEQ ID NO: 1 (protein, listed as Paenibacillus ehimensis)
chain: MNEQLTVLLNNQIANWSVLYVKLHNYHWYVKGPQFFTLHTKFEELYTEAALHVDALAERLLALGGKPVATMSGSLRLASVREAEGEESAERMVAALVNDFTLIIGELKSGMKYAESVQDETTGDLLLAIHSSLEKHVWMLNAFLGN
antibacterial activity remained (E. coli [1]; pH2 for 4 hours): 87% | antibacterial activity after pH treatment (E. coli [1]; pH 3~10 for 4 hours): remain stable | antibacterial activity after protease treatment (trypsin): stable antibacterial activity | antibacterial activity after protease treatment (proteinase K): stable antibacterial activity | antibacterial activity after preliminary purification (E. coli [2]): significantly higher | Diameter of inhibitory zone (Debaryomyces hansenii): 1.3 ± 0.00 cm | Diameter of inhibitory zone (Burkholderia gladioli): 1.5 ± 0.05 cm | Diameter of inhibitory zone (Staphylococcus aureus): 1.1 ± 0.05 cm | Diameter of inhibitory zone (Vibrio vulnificus): 1.3 ± 0.00 cm | Diameter of inhibitory zone (Listeria monocytogenes): 1.0 ± 0.05 cm | Diameter of inhibitory zone (Aeromonas hydrophila): 1.3 ± 0.00 cm | Diameter of inhibitory zone (Vibrio alginolyticus): 1.1 ± 0.03 cm | Diameter of inhibitory zone [3]: 1.1 ± 0.05 cm | Diameter of inhibitory zone (Escherichia coli): 1.4 ± 0.00 cm | Diameter of inhibitory zone (Streptococcus agalactiae): 1.4 ± 0.00 cm | Diameter of inhibitory zone (Salmonella typhimurium): 1.1 ± 0.05 cm | Diameter of inhibitory zone (Vibrio parahaemolyticus): 1.2 ± 0.03 cm | Diameter of inhibitory zone (Pseudomonas aeruginosa): 1.2 ± 0.00 cm | antibacterial activity remained after preservation (E. coli [4]; 4° C.): 90% | antibacterial activity remained after preservation (E. coli [4]; 40° C.): 66% | antibacterial activity remained after preservation (E. coli [4]; room temperature): 80% | antibacterial activity remained after preservation (E. coli [4]; −20° C.): 90%
